Data reported in PMC9638024, “Functional rewiring of G protein-coupled receptor signaling in human labor” (Cell Reports, 2022).

Biological target: FLAG-tagged EP2, P43116
Assay: PD-PALM (dual-color photoactivated localization microscopy with photoactivatable dyes); HEK 293 cells stably expressing FLAG-EP2 and transfected with HA-OTR; live labelling with anti-FLAG-CAGE 500 and anti-HA-CAGE 552, fixed, TIRF plane, 25 C; search radius 50 nm, Getis Franklin …
Conditions: other: PD-PALM (dual-color photoactivated localization microscopy with photoactivatable dyes)

Sequence of FLAG-tagged EP2, P43116 (P43116 whole entry): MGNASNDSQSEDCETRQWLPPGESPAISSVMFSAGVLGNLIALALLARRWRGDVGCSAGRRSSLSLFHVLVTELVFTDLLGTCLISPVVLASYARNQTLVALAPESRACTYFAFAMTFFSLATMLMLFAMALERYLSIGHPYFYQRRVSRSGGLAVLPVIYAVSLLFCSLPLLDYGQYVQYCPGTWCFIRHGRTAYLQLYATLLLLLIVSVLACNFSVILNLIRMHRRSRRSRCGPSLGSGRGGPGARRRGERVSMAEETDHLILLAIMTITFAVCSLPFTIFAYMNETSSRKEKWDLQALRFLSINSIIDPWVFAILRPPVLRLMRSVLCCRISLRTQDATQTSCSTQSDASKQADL

B1: hemagglutinin (HA)-tagged OTR (protein)
chain: MEGALAANWSAEAANASAAPPGAEGNRTAGPPRRNEALARVEVAVLCLILLLALSGNACVLLALRTTRQKHSRLFFFMKHLSIADLVVAVFQVLPQLLWDITFRFYGPDLLCRLVKYLQVVGMFASTYLLLLMSLDRCLAICQPLRSLRRRTDRLAVLATWLGCLVASAPQVHIFSLREVADGVFDCWAVFIQPWGPKAYITWITLAVYIVPVIVLAACYGLISFKIWQNLRLKTAAAAAAEAPEGAAAGDGGRVALARVSSVKLISKAKIRTVKMTFIIVLAFIVCWTPFFFVQMWSVWDANAPKEASAFIIVMLLASLNSCCNPWIYMLFTGHLFHELVQRFLCCSASYLKGRRLGETSASKKSNSSSFVLSHRSSSQRSCSQPSTA
percent of the heteromers that are heterodimers (basal): heterodimers (∼55% of the heteromers)
